From publication PMC3898117 (Biochemical Journal, 2013)

Molecular target: recombinant RNMT (RNA guanine-7 methyltransferase) (UniProt O43148 1-476)
Test: cell-based or functional assay

Chain of recombinant RNMT (RNA guanine-7 methyltransferase) (O43148 whole entry): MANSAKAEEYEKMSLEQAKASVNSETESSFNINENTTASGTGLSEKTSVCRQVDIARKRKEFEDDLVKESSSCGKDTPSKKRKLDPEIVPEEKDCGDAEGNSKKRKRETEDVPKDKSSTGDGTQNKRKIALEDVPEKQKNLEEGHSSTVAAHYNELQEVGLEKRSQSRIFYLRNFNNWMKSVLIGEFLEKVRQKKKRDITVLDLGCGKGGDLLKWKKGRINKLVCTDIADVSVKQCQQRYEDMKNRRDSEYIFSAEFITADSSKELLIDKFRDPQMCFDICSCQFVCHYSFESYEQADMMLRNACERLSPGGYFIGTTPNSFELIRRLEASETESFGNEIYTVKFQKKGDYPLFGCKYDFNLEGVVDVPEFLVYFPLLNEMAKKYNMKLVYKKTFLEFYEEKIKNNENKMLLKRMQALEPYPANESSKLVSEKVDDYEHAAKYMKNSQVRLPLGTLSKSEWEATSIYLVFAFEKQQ

B1: GST–RAM 1–55 (domain or fragment, human, UniProt Q9BTL3 1-55, looked up)
chain: MTDTAEAVPKFEEMFASRFTENDKEYQEYLKRPPESPPIVEEWNSRAGGNQRNRG
in vitro cap methyltransferase activity of 15 nM RNMT pre-incubated with 15 nM GST–RAM 1–55, compared with GST control: > 5 fold
